Laboratory results taken from the supplement of paper PMC9170038.

System: MS2 coat protein
Assay: apparent KD of MS2 coat protein; designed switch direction (-1 OFF switch, 1 ON switch): -1; higher = weaker reporter binding
Summary of the method: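 For each design, the apparent KD is the median over clusters of curves fitted to normalised cluster fluorescence. Clusters held RNA switches with common flanks, transcribed on Illumina chips by stalled E. coli RNA polymerase. These were titrated with SNAP-549-labelled MS2 coat protein, doubling from 0.7 or 1.5 nM to 3 µM, without input, with 200 uM small-molecule ligand, or with an oligonucleotide input.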

[1] = input ligand: microRNA oligo, concentration not stated
[2] = Eterna round: R95, input ligand: FMN 200 uM
[3] = Eterna round: R95, input ligand: microRNA oligo, concentration not stated
[4] = Eterna round: R95, input ligand: none

Sequence	apparent KD of MS2 coat protein (input ligand: FMN 200 uM) [nM]	apparent KD of MS2 coat protein [1] [nM]	apparent KD of MS2 coat protein (input ligand: none) [nM]	other results
UUAAUUAAUUUAUUAGAUCCUCACAUGAGGAUCACCCAUGUGCAGGAUAUCAGCUCGUGUAGAGCUGAGAAGGGCACUAUAAAU [ExNG3/10-B3] (Eterna round: R96, puzzle: Exclusion NG 3)	29.8	61.5	116	–
UUACUGUGAGGAUAUUACAUUUAGCGGCUAGCAACUAGGGAUAAGAAGGCACAUGAGGAUCACCCAUGUCCCGU [Eternabot (L1) Solution 35] (Eterna round: R97, puzzle: Exclusion 4)	95.7	–	21.5	–
UUAGAUUAUUGAGGAUAUGGAUCUUAUUAUUAACCAGAAGGCAAACUCAACAUGAGGAUCACCCAUGUAUAAAGGGUAUUAGUU [JR_ExcNG1_Sub099] (Eterna round: R96, puzzle: Exclusion NG 1)	–	62.8	–	–
UUAGUGUAAGGAUAUGCAAACCACGGAAAUAAAACGUGGAGGUAGAAGGUACAUGAGGAUCACCCAUGUUAAAC [Mod of Anonveat 25 - Jieux - Exclusion 4] (Eterna round: R97, puzzle: Exclusion 4)	34	–	20.2	–
UUAGUGUGAGGAUAUGGUAAAGAUAAGAUGAUGAAAGAACUCCAGAAGGCACAUGAGGAUCACCCAUGUAGAUG [JL-ex4-2.13 Jieux mod] (puzzle: Exclusion 4)	–	–	–	apparent KD of MS2 coat protein [2]: 67.4 nM; apparent KD of MS2 coat protein [3]: 35.4 nM; apparent KD of MS2 coat protein [4]: 30.6 nM
UUAUACGCUGAGGAUAUCUUCACUGAGAGGUGAAGAGAAGGCGGUACAUGAGGAUCACCCAUGUCUAUGGGCAG [Ex-6 Malc#20] (puzzle: Exclusion 6)	–	–	–	apparent KD of MS2 coat protein [2]: 376 nM; apparent KD of MS2 coat protein [3]: 312 nM; apparent KD of MS2 coat protein [4]: 479 nM
UUAUACGUUGAGGAUAUGUCAUUUAGUAUAGUUACAGAAGGCGAUACAUGAGGAUCACCCAUGUUUAUGGGCAU [Ex-6 Malc#2] (puzzle: Exclusion 6)	–	–	–	apparent KD of MS2 coat protein [3]: 166 nM
UUAUCUACUGAGGAUAUUAUAUCACCCGACUGAUAAGAAGGCAGUACAUGAGGAUCACCCAUGUGGGUAGCCAU [Polaris10] (Eterna round: R97, puzzle: Exclusion 6)	43	–	32.6	–
UUAUUAUAUGUAGGAUAUGCAUAUUGUUGUUAUGCAGAAGGACAUGAGGAUCACCCAUGUAUAUUAUUGUUAUGUAUUAUAUAU [Title] (Eterna round: R96, puzzle: Exclusion NG 1)	64.7	23.3	37.1	–
UUAUUAUAUGUAGGAUAUGCGUAUUAUUGUUAUGCAGAAGGACAUGAGGAUCACCCAUGUAUAUUAUUGUUAUGUAUUAUAUAU [Title] (Eterna round: R96, puzzle: Exclusion NG 1)	–	26.6	–	–
UUAUUGUAUGUAGGAUAUGCAUAUUAUUAUUAUGCAGAAGGACAUGAGGAUCACCCAUGUAUAUUAUUAUUAUAUAUUAUAUAU [Title] (Eterna round: R96, puzzle: Exclusion NG 1)	–	24.6	–	–
UUAUUUAGGUAGGAUAUCGAUACCAAUUACUAUCGAGAAGGGUCUACAUGAGGAUCACCCAUGUUAGCAUGUUU [LRO-Excl6-12-Rocketman] (Eterna round: R97, puzzle: Exclusion 6)	26.4	–	24.9	–
UUAUUUAGUGUGAGGAUAUGCUGGUCCUUGGAUCAGCAGAAGGCACAUGAGGAUCACCCAUGUAAUAUAUUAAU [JL bmx4 3.06] (puzzle: Brourd's mod of Exclusion 4)	–	–	–	apparent KD of MS2 coat protein [3]: 73.1 nM
UUAUUUAGUGUGAGGAUAUGCUGGUCGAUAGAUCAGCAGAAGGCACAUGAGGAUCACCCAUGUAAUAUAUUAAU [Mat - Exclusion 4 - JL Mod - D33] (puzzle: Brourd's mod of Exclusion 4)	–	–	–	apparent KD of MS2 coat protein [2]: 395 nM; apparent KD of MS2 coat protein [3]: 50 nM; apparent KD of MS2 coat protein [4]: 72.7 nM
UUCACAUGGACAUGAGAUCACAUGAGGAUCACCCAUGUGAAUAACAAGCUUUUUGCUCGUCUUAUGUCCAAUAAUAU [Stov1/14-C3] (Eterna round: R97, puzzle: Sensor, turn-off variant 1)	13.1	–	13.1	–
UUCAUGUAAGGAUAUGUAGUGAUGACGAAAUUUGUCGUUAAACAGAAGGUACAUGAGGAUCACCCAUGUAGCUA [EX4 B.9] (Eterna round: R97, puzzle: Exclusion 4)	133	–	27.4	–
UUCCAACAUGAGGAUCACCCAUGUCAGGAUAUCUAGGCUACUGCUACCACAAUUAGCUAGAGAAGGGACAAGAU [EX1 B.14] (Eterna round: R97, puzzle: Exclusion 1)	26.1	–	19.5	–

Sequence	apparent KD of MS2 coat protein (input ligand: FMN 200 uM) [nM]	apparent KD of MS2 coat protein [1] [nM]	apparent KD of MS2 coat protein (input ligand: none) [nM]	other results
UUCCUCACUUCUUUGUCUCACAUGAGGAUCACCCAUGUAAUAUAGGAUAUGCUUAGUAUUUCUAUGCAGAAGGAUAUUAGUUUU [JR_ExcNG3_Sub086] (Eterna round: R96, puzzle: Exclusion NG 3)	111	27.3	32.3	–
UUCCUCUUUGUGAGGAUAUCGUCCGUUUUUUGUUACGAGAAGGCACAUGAGGAUCACCCAUGUUUUUUGUUUUU [JR_BMOE4_Sub076] (puzzle: Brourd's mod of Exclusion 4)	–	–	–	apparent KD of MS2 coat protein [3]: 21.4 nM
UUCGGCGCAGGAUAUACAGUUCUGUGUUGAAUCGGCGCGGGACAUGAGGAUCACCCAUGUAGAAGGGUGUUGGG [-26.9, -23.2 kcal, A 22%] (Eterna round: R97, puzzle: Exclusion 2)	220	–	538	–
UUCGUGCAGCUUUGCUGUACGCGUACAUGAGGAUCACCCAUGUAGGAUAUGGUAGGCUUUGCUUACUAGAAGGAUAUUGUGAUC [JL EXNG3 1.32] (Eterna round: R96, puzzle: Exclusion NG 3)	256	80.9	123	–
UUCGUGCUGCUUUGCUGUACGAGUACAUGAGGAUCACCCAUGUAGGAUAUGGACAUGAGGAUCACCCAGAAGGAUAUGUGUUGC [salish99_ExNG3_r04_508] (Eterna round: R96, puzzle: Exclusion NG 3)	–	87.5	–	–
UUCGUGCUGCUUUGCUGUACGAGUACAUGAGGAUCACCCAUGUAGGAUAUGGUUCGCUUUGCGUGCUAGAAGGAUAUGUGUUGC [salish99_ExNG3_r04_507] (Eterna round: R96, puzzle: Exclusion NG 3)	26.2	17.8	26	–
UUCGUGUAAGGAUAUACGACUCAUCCCAAUGGGACGAGCACGUAGAAGGUACAUGAGGAUCACCCAUGUGCUCC [Eddianle] (Eterna round: R96, puzzle: Exclusion 4)	284	33.3	39.9	–
UUCUUGCGCGUGAGGAUAUGCUGAUCCCAGGAUUAGCAGAAGGCACAUGAGGAUCACCCAUGUCCAACUUGUCU [LRO-BmodExc4-15- Bluer = mod of Colors by Tatyana Zabanova] (Eterna round: R97, puzzle: Brourd's mod of Exclusion 4)	51.4	–	38.6	–
UUGAAAGGUGUAGGAUAUGUAUGAGGAUCACCCAUUAAUAAAUUUUAACCACGAGGAUCACCCGUGUAGAAGGACACCUUUCAA [pwkr exNG2 2xF5 1xFMN.18] (Eterna round: R96, puzzle: Exclusion NG 2)	36.9	18	31.8	–
UUGAACAUAGGAUAUAGUUGUUUGUACAUGAGGAUCACCCAUGUUAUGUAUGUUUUGUUUCUAGAAGGAUGUUGAU [JR_E5_Sub002] (puzzle: Exclusion 5)	–	–	–	apparent KD of MS2 coat protein [3]: 32.5 nM
UUGACGUCGUCAGGAUAUAGUUUUAAUGUCAUGCGUAUGUUCUUACAUGAGGAUCACCCAUGUCGCUAGAAGGGACUAAAGAUU [JR_ExcNG2_Sub011] (Eterna round: R96, puzzle: Exclusion NG 2)	27.6	23.5	34.7	–
UUGAUGUCAUCAGGAUAUAGUAUUUAAGACAUAUCUUCUUUCAAACAUGAGGAUCACCCAUGUCGCUAGAAGGGAUGAUUGAUU [JR_ExcNG2_Sub084] (Eterna round: R96, puzzle: Exclusion NG 2)	–	11.9	–	–
UUGAUGUGAGGAUAUAUAUGGUUGUUUUUUUAUUUUUUAUUACUUGAGGAUCACCCAAGUAGAAGGCGCUACGU [JR_Ex2_Sub068] (Eterna round: R97, puzzle: Exclusion 2)	25.5	–	29.5	–
UUGCAGUCGUCAGGAUAUAGUAUUACGGCCUUUCAUUUCUUCAUACAUGAGGAUCACCCAUGUCGCUAGAAGGGAUUAUCGCUU [salish99_ExNG2_r04_107] (Eterna round: R96, puzzle: Exclusion NG 2)	16.4	14.6	20.6	–
UUGGUUGUGGUAGGAUAUCCGUUGGAAACUGUUGGAGAAGGACCACAGUCACUGGGUCCUUGUUUGGUGGAGUGGAAGAACCAU [pwkr exNG1 F6.16] (Eterna round: R96, puzzle: Exclusion NG 1)	453	294	329	–
UUGUACCGGUGAGGAUAUUUUUAAUAGAACUUUAUGAUAUACAUGAGGAUCACCCAUGUUACUUUAAAGAAGGCAUCGGAUUAU [JL JR Sub091 mod 1] (Eterna round: R96, puzzle: Exclusion NG 2)	–	12.9	–	–
UUGUGCACGCUGCGAUCCUACAUGAGGAUCACCCAUGUGGUCUGGUGGCGUGGGUCACCGGACUUGGCUCGUCUUGG [salish99_S_TOV1_R5_076] (Eterna round: R97, puzzle: Sensor, turn-off variant 1)	126	–	138	–
